Measured values as given in the RNAGym collection of RNA variant scans (doi:10.1021/acssynbio.7b00057).

B1: Pistol ribozyme (parent)
chain: GGGUCGUUGUUCCAUAAUCGCGUGGAUAUGGCACGCAAGUUUCUACCGGGCACCGUAAAUGUCCGACUGGAGCCGUUCGGGCGGCUAUAAACAGACCUCAGGCCCGAAGCGUGGCGGCACCUGCCGCCGGUGGUAAAAAAGAUCGGAAGAGCACACGUCU

Variants of: B1
Experiment: aptazyme ON/OFF ratio, guanine; higher = stronger switching; co-transcriptional cleavage with and without guanine
For U7A U8G U10G U11A C12G C13G, the “aptazyme ON/OFF ratio” value was 1.46. With U8A U10G U11G C13U the “aptazyme ON/OFF ratio” value was 1.3. For U7C U8A G9C U11C C13U, the “aptazyme ON/OFF ratio” value was 1.05. For U8C G9A U10C C12U C13A, the “aptazyme ON/OFF ratio” value was 1.29. For G9A U11C C12A, the “aptazyme ON/OFF ratio” value was 1.38. In the case of U8C G9U U10G C12U C13A, the “aptazyme ON/OFF ratio” value is reported as 1.28. For U7G U8C G9C U10G U11G C12U C13G, the “aptazyme ON/OFF ratio” value was 1.09. For U7G U8G U11G, the “aptazyme ON/OFF ratio” value was 2.52. For U7A U8G G9C C12U, the “aptazyme ON/OFF ratio” value was 1.88. With U7C U8A G9C U11A C13A the “aptazyme ON/OFF ratio” value was 1.11. For U7G G9C U10A C12A C13U, the “aptazyme ON/OFF ratio” value was 1.2. In the case of U7C U8G G9U U10G U11A C12G, the “aptazyme ON/OFF ratio” value is reported as 1.17. With U7G U8C U10A U11G C12G the “aptazyme ON/OFF ratio” value was 1.19. For U7A U8G G9A U10C U11A C12A, the “aptazyme ON/OFF ratio” value was 1.24. With U7G G9C U10A C12G C13G the “aptazyme ON/OFF ratio” value was 1.1. In the case of U7A G9C U10G U11C C12G, the “aptazyme ON/OFF ratio” value is reported as 1.08. For U7A U8C G9U U10A U11C C12G C13A, the “aptazyme ON/OFF ratio” value was 1.23. With U8C G9U U10G U11C C13G the “aptazyme ON/OFF ratio” value was 1.04. In the case of U7C U8C G9A U10A U11G C12U C13G, the “aptazyme ON/OFF ratio” value is reported as 1.21. In the case of U7G U8C G9A U10C U11G C12G C13A, the “aptazyme ON/OFF ratio” value is reported as 1.08. For U7G U8C G9U U11A C12U C13U, the “aptazyme ON/OFF ratio” value was 1.41. In the case of U8C G9A C12G C13U, the “aptazyme ON/OFF ratio” value is reported as 1.26. In the case of U8C G9A U10G U11A C12U, the “aptazyme ON/OFF ratio” value is reported as 1.04. For U8G G9A U10G C12U C13A, the “aptazyme ON/OFF ratio” value was 1.32. For U8C G9C U10C U11C C12U C13A, the “aptazyme ON/OFF ratio” value was 1.05. In the case of U7A U8G G9U U10G C12U C13U, the “aptazyme ON/OFF ratio” value is reported as 1.21. With U7A U8C G9C U10G U11G C13G the “aptazyme ON/OFF ratio” value was 1.08. For U7A U8C G9A U10C U11G C12G, the “aptazyme ON/OFF ratio” value was 1.27. For U7C U8G G9A U10A U11G, the “aptazyme ON/OFF ratio” value was 1.33. With U7C U8G G9C U11C C13U the “aptazyme ON/OFF ratio” value was 1.38. With U7C U8G G9U U10C U11A C12U C13G the “aptazyme ON/OFF ratio” value was 1.27. In the case of U7G U8G G9C U10C C12A, the “aptazyme ON/OFF ratio” value is reported as 1.33. For U7G G9A U11A C12U C13U, the “aptazyme ON/OFF ratio” value was 1.19. For U7A U8A G9U U10A U11G C12G C13G, the “aptazyme ON/OFF ratio” value was 1.23. With U7G U8A G9C U10A U11C C12G C13G the “aptazyme ON/OFF ratio” value was 1.04. With U7G U8G G9C U10G U11C the “aptazyme ON/OFF ratio” value was 1.06. For U10C U11C C12A C13A, the “aptazyme ON/OFF ratio” value was 1.19. With U7A U8A G9C U10A U11C the “aptazyme ON/OFF ratio” value was 1.04. For U8A G9C U10A U11G C12A C13U, the “aptazyme ON/OFF ratio” value was 1.14. In the case of U7C U8G U11C C12A C13G, the “aptazyme ON/OFF ratio” value is reported as 1.15. For U7C G9C U10A U11A C12U C13A, the “aptazyme ON/OFF ratio” value was 1.04. With U8C G9U U10A U11A C12G C13U the “aptazyme ON/OFF ratio” value was 1.21. For U7A U8C G9C U10C U11C C13A, the “aptazyme ON/OFF ratio” value was 1.03. With U7A U8A U11G C12U C13A the “aptazyme ON/OFF ratio” value was 1.2. In the case of U8C G9A U10A U11C C12G C13A, the “aptazyme ON/OFF ratio” value is reported as 1.21. For U7C U11C C12G C13A, the “aptazyme ON/OFF ratio” value was 1.21. For U7C U8A G9C U10G C13U, the “aptazyme ON/OFF ratio” value was 1.35. In the case of U7G U8G G9C U10G U11A C12U C13U, the “aptazyme ON/OFF ratio” value is reported as 1.1. For U7G U8A G9C U10A U11G C12A C13A, the “aptazyme ON/OFF ratio” value was 1.05. With U7A G9A U10C U11G C12G C13G the “aptazyme ON/OFF ratio” value was 1.27. For U7C U8G G9C U10A U11C C13G, the “aptazyme ON/OFF ratio” value was 1.04. In the case of U7C U8A G9U U10G U11C C12U, the “aptazyme ON/OFF ratio” value is reported as 1.07. For U7G U8A U10G C12G C13A, the “aptazyme ON/OFF ratio” value was 1.25. With U7A U8G G9U U10C C13U the “aptazyme ON/OFF ratio” value was 1.57. In the case of U7C U8G G9U U11A C12A C13A, the “aptazyme ON/OFF ratio” value is reported as 1.32. With U7A U8C U10C U11C C12G the “aptazyme ON/OFF ratio” value was 1.19. With U8A G9A U10A U11C C12A C13U the “aptazyme ON/OFF ratio” value was 1.25. With U7C U11C C12G the “aptazyme ON/OFF ratio” value was 1.35. In the case of U7C U8A G9C U10C U11A C12U C13G, the “aptazyme ON/OFF ratio” value is reported as 1.05. For U7A G9C U10C U11C C13U, the “aptazyme ON/OFF ratio” value was 1.03. In the case of U7A U8A G9U U10G C12A C13A, the “aptazyme ON/OFF ratio” value is reported as 1.38. For U8G G9C U10A U11A C12U C13G, the “aptazyme ON/OFF ratio” value was 1.1. With U7G U8G G9A U10G U11A C12G C13G the “aptazyme ON/OFF ratio” value was 1.18. For U7C U8C G9C U11C C12U, the “aptazyme ON/OFF ratio” value was 1.32. In the case of U7G U8A U10A C12G, the “aptazyme ON/OFF ratio” value is reported as 1.3. In the case of U7C U8A U10C C12U C13G, the “aptazyme ON/OFF ratio” value is reported as 1.17. In the case of U7A U8C G9C U10C C12U, the “aptazyme ON/OFF ratio” value is reported as 1.04. With U7C U8C G9U U10A U11A C13A the “aptazyme ON/OFF ratio” value was 1.13. In the case of U7C U8G G9A U10A U11C C12A, the “aptazyme ON/OFF ratio” value is reported as 1.21. For G9A U11G C12G C13U, the “aptazyme ON/OFF ratio” value was 1.15. For U7A U8C G9U U10G U11A C12A C13U, the “aptazyme ON/OFF ratio” value was 1.41. For U7C U8C G9A U10C U11G C12U, the “aptazyme ON/OFF ratio” value was 1.21. With U7C U8A G9U C12U C13G the “aptazyme ON/OFF ratio” value was 1.14. With U7G G9A U10G U11G C12G C13A the “aptazyme ON/OFF ratio” value was 1.11. In the case of U7A U8C G9A U10G C12U, the “aptazyme ON/OFF ratio” value is reported as 1.23. In the case of U10C U11C C12U C13G, the “aptazyme ON/OFF ratio” value is reported as 1.06. For U7A U8C G9A U10C U11A C12U C13U, the “aptazyme ON/OFF ratio” value was 1.18. For U7G U8A G9U U11G C12A C13A, the “aptazyme ON/OFF ratio” value was 1.09. With U7A U8C G9C U10G U11C C12A C13G the “aptazyme ON/OFF ratio” value was 1.08. For U7A G9A U10G U11A C12U C13G, the “aptazyme ON/OFF ratio” value was 1.06. In the case of U7C U10A C13A, the “aptazyme ON/OFF ratio” value is reported as 1.06. With U7A U8A G9C U10C U11A C12A C13U the “aptazyme ON/OFF ratio” value was 1.06. With U7A U8G G9U U10C U11G C12U C13A the “aptazyme ON/OFF ratio” value was 1.21.
